Measured values published in PMC3229571, “ZipA Binds to FtsZ with High Affinity and Enhances the Stability of FtsZ Protofilaments” (PLoS ONE, 2011).

Target: the molecule itself
Assay: co-sedimentation; FtsZ 6 µM, 50 mM PIPES pH 6.0, 6.8 or 8.0, 1 mM MgCl2, 1 mM GTP, 10 min at 37°C; polymers sedimented at 88,760 x g, 30°C, 30 min; SDS-PAGE of pellets

B1: FtsZ (natural protein, E. coli, UniProt P0A9A6 1-383, looked up)
chain: MFEPMELTNDAVIKVIGVGGGGGNAVEHMVRERIEGVEFFAVNTDAQALRKTAVGQTIQIGSGITKGLGAGANPEVGRNAADEDRDALRAALEGADMVFIAAGMGGGTGTGAAPVVAEVAKDLGILTVAVVTKPFNFEGKKRMAFAEQGITELSKHVDSLITIPNDKLLKVLGRGISLLDAFGAANDVLKGAVQGIAELITRPGLMNVDFADVRTVMSEMGYAMMGSGVASGEDRAEEAAEMAISSPLLEDIDLSGARGVLVNITAGFDLRLDEFETVGNTIRAFASDNATVVIGTSLDPDMNDELRVTVVATGIGMDKRPEITLVTNKQVQQPVMDRYQQHGMAPLTQEQKPVAKVVNDNAPQTAKEPDYLDIPAFLRKQAD
notes: Cell division protein FtsZ, E. coli; no tag is named; also called recombinant E. coli FtsZ; source: E. coli BL21, purified (ammonium sulfate precipitation, desalting, polymerization and depolymerization step)
- binding result: binds
